According to PMC6827878 (Cell, 2018):

Molecular target: Recombinant PP4R3β (His tagged SMEK2) (UniProt Q5MIZ7 1-849)
Test: ITC

Sequence of Recombinant PP4R3β (His tagged SMEK2) (Q5MIZ7 whole entry): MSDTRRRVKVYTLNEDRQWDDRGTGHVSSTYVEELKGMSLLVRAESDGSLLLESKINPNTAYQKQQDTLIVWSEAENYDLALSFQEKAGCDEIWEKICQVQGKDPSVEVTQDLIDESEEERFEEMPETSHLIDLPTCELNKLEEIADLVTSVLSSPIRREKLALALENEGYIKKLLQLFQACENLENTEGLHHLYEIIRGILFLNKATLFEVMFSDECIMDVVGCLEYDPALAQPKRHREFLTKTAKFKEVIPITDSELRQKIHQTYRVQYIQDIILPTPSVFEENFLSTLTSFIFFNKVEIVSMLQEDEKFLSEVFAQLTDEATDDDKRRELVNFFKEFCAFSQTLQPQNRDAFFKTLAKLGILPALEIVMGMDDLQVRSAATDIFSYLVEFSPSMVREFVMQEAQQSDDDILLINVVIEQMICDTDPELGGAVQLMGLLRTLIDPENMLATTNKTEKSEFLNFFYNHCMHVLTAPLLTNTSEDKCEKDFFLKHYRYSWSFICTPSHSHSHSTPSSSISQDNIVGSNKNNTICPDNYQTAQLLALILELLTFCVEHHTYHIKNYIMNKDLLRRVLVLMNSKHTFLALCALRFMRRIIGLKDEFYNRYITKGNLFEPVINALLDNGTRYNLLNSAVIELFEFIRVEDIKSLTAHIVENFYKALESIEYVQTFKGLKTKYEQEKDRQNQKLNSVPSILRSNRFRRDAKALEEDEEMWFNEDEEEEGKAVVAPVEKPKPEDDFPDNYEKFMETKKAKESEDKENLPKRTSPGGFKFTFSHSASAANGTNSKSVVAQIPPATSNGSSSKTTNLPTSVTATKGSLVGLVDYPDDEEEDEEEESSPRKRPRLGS

Kd: 370 ± 30 nM
B1: GST-CT45A1 (natural protein, human, UniProt Q5HYN5 1-189, looked up)
chain: MTDKTEKVAVDPETVFKRPRECDSPSYQKRQRMALLARKQGAGDSLIAGSAMSKAKKLMTGHAIPPSQLDSQIDDFTGFSKDRMMQKPGSNAPVGGNVTSSFSGDDLECRETASSPKSQREINADIKRKLVKELRCVGQKYEKIFEMLEGVQGPTAVRKRFFESIIKEAARCMRRDFVKHLKKKLKRMI
